The source of these data is patent publication US8613927B2, “High affinity human antibodies to human nerve growth factor” (Regeneron Pharmaceuticals, Inc., priority 2007, dated 2013).

pIC50, pKd: −log10 of the molar value. Read-outs that look alike come from different tables or passages of the source.

For one assay, the system named is C57BL/6 mice. Nature of the assay: Post-operative incision pain model, weight bearing test. The note with it: for mean percent weight distribution on affected limb: Table 15. Format: in vivo, mouse. The protocol: Post-operative incision pain model. A rodent model of post-operative pain in which a hind paw plantar incision causes increased sensitivity to touch, guarding behavior, and thermal hyperalgesia, was used to study the efficacy of anti-NGF antibody therapy. For the plantar incision surgery, C57BL/6 mice under isoflurane received an incision through skin, fascia and then isolating the underlying flexor muscle and bisecting vertically. After suture and recovery, the mice were tested for thermal hyperalgesia in the Hargreaves' test and for guarding behavior in the weight bearing test (model 600, IITC Life Science) for 5 days.

For assay [1], the target named is T1, NT-3 signaling through p75 and TrkA in PC12 cell line (Homo sapiens, UniProt P20783).
T1 construct: host or cells: NT-3 added exogenously; receptors endogenous in PC12 cells
T1 sequence (P20783 139-257): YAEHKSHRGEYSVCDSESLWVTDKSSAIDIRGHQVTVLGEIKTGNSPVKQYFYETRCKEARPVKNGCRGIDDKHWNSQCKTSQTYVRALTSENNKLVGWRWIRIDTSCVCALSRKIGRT
Briefly: PC12 SRE-luciferase assay with 75 nM NT-3 instead of NGF. The note with it: read-out: IC50, blocking of NT-3 signaling. It is filed as cell-based. The protocol:
The ability of NGF antibodies to block NGF signaling p75 and TrkA receptor-mediated activity was also measured in vitro using a rat adrenal medulla cell line, PC12, which express both receptors endogenously (Urdiales et al. 1998 J. Neuroscience 18(17):6767-6775). Briefly, PC12 cells were stably transfected with a reporter plasmid containing a serum response element (SRE) linked to a luciferase gene. The transfected cells were resuspended at approximately 2.5×10^5 cells per ml and plated at 50,000 cells per well in a 96-well tissue culture plate in Opti-MEM media overnight. The purified antibody proteins were serially diluted in medium (DMEM plus 0.1% BSA) and added to the plated cells at concentrations ranging from 0 to 100 nM. […] Luciferase activity was measured after incubating the cells for 6 hours at 37° C. in a humidified 7.5% CO2 incubator using BRIGHT GLOW™ luciferase assay system (Promega). Control mAb=RN624.

For assay [2], the target named is T2, NGF (Homo sapiens, UniProt P01138, DEL136-138/DEL208-209). Briefly: BIACORE cross-reactivity test, NGF injected at 20 nM. It is filed as binding. The note with it: Table 3; NGF 20 nM. The protocol:
The anti-NGF antibodies were examined for binding cross-reactivity with human NT-3. Briefly, goat anti-human IgG polyclonal antibody was chemically linked to a CM5 chip. Anti-NGF monoclonal antibodies were injected forming a surface of about 50 to 900 RU of immobilized antibody through the interaction with the chip coupled polyclonal antibodies. NGF or NT-3 protein at a concentration of 20 nM was injected over the surface, followed by a buffer wash to allow bound ligand to dissociate. Both association and dissociation phases were monitored and data were analyzed. Results are shown in Table 3 (NB=no binding activity observed).
(In general: Surface plasmon resonance follows binding to a sensor surface in real time, without labels.)

Assay [3] deals with T3, NT-3 signaling through TrkC (engineered HEK293 cell line expressing TrkC) (Homo sapiens, UniProt P20783).
T3 construct: host or cells: NT-3 added exogenously; partner TrkC made by an engineered HEK293 line
T3 sequence (P20783 139-257): T1 sequence (P20783 139-257)
Briefly: HEK293/TrkC SRE-luciferase bioassay of NT-3 signaling. The note with it: 15 pM NT-3; 6 hours; read-out: IC50, inhibition of NT-3-mediated luciferase activity. It is filed as cell-based. The protocol: An engineered HEK293 cell line expressing TrkC was transfected with a SRE-luciferase reporter plasmid. NT-3 drives luciferase expression in a 6-hour assay. […] The engineered HEK293 cell line was seeded onto 96-well plates at 1×10^4 cells/well in serum-free media and incubated overnight at 37° C., 5% CO2. […] The cells were then incubated at 37° C., 5% CO2 for 6 hours. Luciferase activity was determined by adding an equal well volume of BRIGHT GLOW™ (Promega).

Assay [4] has as its target T2, NGF. Briefly: BIACORE surface kinetics, binding affinity for human NGF. The procedure:
Antigen binding affinities of the antibodies for human NGF were determined by surface kinetics using a real-time biosensor surface plasmon resonance assay (BIACORE™). Antibodies were captured on either a goat, anti-human or anti-mouse IgG polyclonal antibody surface created by direct amine coupling of the capture antibody to a BIACORE™ chip. Various concentrations of human NGF were injected over the captured antibody surfaces while the association of the antigen to the antibody and the dissociation of the bound complex were monitored in real time. Kinetic analysis was performed to obtain the equilibrium dissociation constant (KD) and dissociation rate constant, and the latter was used to calculate the antigen/antibody complex dissociation t1/2 (Table 1).
Antigen binding affinities of selected purified antibodies for NGF were also determined by surface kinetics employing a real-time biosensor surface plasmon resonance assay (BIACORE™) as described above. For convenience, antibody 301272-3H10-A10 was renamed “REGN261” (HCVR/LCVR SEQ ID NOs:84/92 and hIgG1 SEQ ID NO:541); 301272-6E07-D10 was renamed “REGN263” (HCVR/LCVR SEQ ID NO:208/216 and hIgG1 SEQ ID NO:541).

Assay [5] deals with T4, Human NGF (PC12 cells, rat adrenal medulla cell line) (Homo sapiens, UniProt P01138, DEL136-138/DEL208-209).
T4 construct: host or cells: NGF added exogenously; receptors endogenous in PC12 cells
T4 sequence (P01138 with tags, fused parts or gaps DEL136-138/DEL208-209): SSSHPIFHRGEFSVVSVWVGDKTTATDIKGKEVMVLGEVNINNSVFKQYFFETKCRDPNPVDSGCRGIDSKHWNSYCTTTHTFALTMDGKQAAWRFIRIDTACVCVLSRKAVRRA
Nature of the assay: PC12 SRE-luciferase assay of NGF signaling through p75 and TrkA. Format: cell-based. The procedure: The ability of NGF antibodies to block NGF signaling p75 and TrkA receptor-mediated activity was also measured in vitro using a rat adrenal medulla cell line, PC12, which express both receptors endogenously (Urdiales et al. 1998 J. Neuroscience 18(17):6767-6775). Briefly, PC12 cells were stably transfected with a reporter plasmid containing a serum response element (SRE) linked to a luciferase gene. The transfected cells were resuspended at approximately 2.5×10^5 cells per ml and plated at 50,000 cells per well in a 96-well tissue culture plate in Opti-MEM media overnight. The purified antibody proteins were serially diluted in medium (DMEM plus 0.1% BSA) and added to the plated cells at concentrations ranging from 0 to 100 nM. Human NGF was added to the wells to a final concentration of 12.5 pM. Luciferase activity was measured after incubating the cells for 6 hours at 37° C. in a humidified 7.5% CO2 incubator using BRIGHT GLOW™ luciferase assay system (Promega). Control mAb=RN624.

T2 sequence (P01138 with tags, fused parts or gaps DEL136-138/DEL208-209): as above

Regarding tanezumab [RN624], in the assay with C57BL/6 mice (10 mg/kg s.c. 1 hr prior to incision, p<0.001-0.05), the “reduction of post-operative pain vs vehicle, weight bearing test” value is reported as “significantly reduced the post-operative pain”. The “mean percent weight distribution on affected limb” value in the assay on C57BL/6 mice (10 mg/kg s.c. pre-incision, Day 0, ±SEM) is 49.0 ± 0.5%; in the assay with C57BL/6 mice (10 mg/kg, Day 1 after surgery), 44.8 ± 1.9%; in the assay on C57BL/6 mice (10 mg/kg, Day 2 after surgery) it was 42.7 ± 1.8%; with C57BL/6 mice (10 mg/kg, Day 3 after surgery), 48.7 ± 1.9%; in the assay on C57BL/6 mice (10 mg/kg, Day 4 after surgery), 47.2 ± 1.2%; in the assay with C57BL/6 mice (10 mg/kg, Day 5 after surgery), 49.7 ± 0.7%. Further, the pIC50 was approximately 6.98 in assay [1]; 6.70 to 6.82 in assay [3]; 10.68 in assay [5] (Table 10, 12.5 pM human NGF, 6 hours, read-out: PC12 IC50); 11.31 in assay [5] (Table 11, selected purified antibodies, PC12 luciferase, read-out: IC50). The pKd with NGF [2] was 11.89; in the assay with NGF [4] (Table 1, read-out: KD) it was 11.89; with NGF [4] (Table 2, selected purified antibodies, read-out: KD), 11.90; with NGF [4] (Table 5, read-out: Human NGF KD), 11.90; in the assay with NGF [4] (Table 6, selected purified antibodies, read-out: NGF KD), 11.90.

As usually defined, the pIC50 is −log10 of the IC50, conventionally taken in molar units. By pKd is commonly meant the negative decadic logarithm of the Kd, by convention in mol/L.
